Measurements as given in article PMC4277889.
Like-named read-outs stand apart in the source and are kept apart here.

Legend:
[1] = molecular target: T1, EpCAM (epithelial cell adhesion molecule) (UniProt P16422 24-265); assay: ACP fluorescence switching
T1 sequence: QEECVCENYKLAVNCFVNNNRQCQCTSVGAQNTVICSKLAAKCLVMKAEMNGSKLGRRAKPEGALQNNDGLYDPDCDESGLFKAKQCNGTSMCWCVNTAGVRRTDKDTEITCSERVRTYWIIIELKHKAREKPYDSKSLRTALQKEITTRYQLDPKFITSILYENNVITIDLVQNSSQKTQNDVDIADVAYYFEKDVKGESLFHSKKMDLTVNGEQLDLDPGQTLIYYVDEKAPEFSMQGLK

[2] = molecular target: T1, EpCAM (epithelial cell adhesion …); assay: ACP fluorescence switching; remark: listed apart in the source

B1: random sequence ACP (ssDNA)
DNA: TAAGTATATCGTGCCTGCGACTATGTTATGATGAGGCAGTCTTTAACCTGACTCGTAATA
modifications: 5' conjugated to polydiacetylene as JYK-01
Q: Does B1 bind [1]?
A: no binding

B2: JYK-01 ACP (polydiacetylene conjugate) (ssDNA)
DNA: TGAAGGTTCGTTGTTTCGGTGGGTGTAGACTCTTTAGAAGAGATACAGATTTTGGGAATG
modifications: 5' amine coupled to diacetylene monomer (TCDA) in polydiacetylene particle
Q: Does B2 bind [2]?
A: binds
